Like-named read-outs stand apart in the source and are kept apart here. Ends that are not written are not given here.
Key:
Test in all cases: cell-based or functional assay
[1] = molecular target: human Kv1.3 voltage-gated potassium channel (human) (UniProt P22001)
[2] = molecular target: human Kv1.3 channel (human) (UniProt P22001)
[3] = molecular target: human Kv1.1 channel (human) (UniProt Q09470)
[4] = molecular target: human Kv1.3 channel (human) (UniProt P22001); remark: listed apart in the source

human Kv1.3 channel (human), sequence (P22001 whole entry): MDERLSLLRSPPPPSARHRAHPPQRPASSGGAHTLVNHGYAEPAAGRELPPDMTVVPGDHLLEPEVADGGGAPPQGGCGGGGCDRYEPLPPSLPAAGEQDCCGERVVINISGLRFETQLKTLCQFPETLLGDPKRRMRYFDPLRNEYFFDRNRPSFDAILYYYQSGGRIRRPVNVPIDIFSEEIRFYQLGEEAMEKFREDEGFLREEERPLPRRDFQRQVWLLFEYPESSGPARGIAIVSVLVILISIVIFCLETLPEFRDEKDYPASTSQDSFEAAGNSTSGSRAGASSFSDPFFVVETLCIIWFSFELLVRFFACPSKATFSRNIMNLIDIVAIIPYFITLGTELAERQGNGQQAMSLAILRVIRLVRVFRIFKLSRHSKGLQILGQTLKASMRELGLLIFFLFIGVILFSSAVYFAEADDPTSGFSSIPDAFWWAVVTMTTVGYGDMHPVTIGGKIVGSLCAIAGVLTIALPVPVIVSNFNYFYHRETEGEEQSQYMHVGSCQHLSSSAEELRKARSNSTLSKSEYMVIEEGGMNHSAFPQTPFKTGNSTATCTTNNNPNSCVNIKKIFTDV
human Kv1.1 channel (human), sequence (Q09470 whole entry): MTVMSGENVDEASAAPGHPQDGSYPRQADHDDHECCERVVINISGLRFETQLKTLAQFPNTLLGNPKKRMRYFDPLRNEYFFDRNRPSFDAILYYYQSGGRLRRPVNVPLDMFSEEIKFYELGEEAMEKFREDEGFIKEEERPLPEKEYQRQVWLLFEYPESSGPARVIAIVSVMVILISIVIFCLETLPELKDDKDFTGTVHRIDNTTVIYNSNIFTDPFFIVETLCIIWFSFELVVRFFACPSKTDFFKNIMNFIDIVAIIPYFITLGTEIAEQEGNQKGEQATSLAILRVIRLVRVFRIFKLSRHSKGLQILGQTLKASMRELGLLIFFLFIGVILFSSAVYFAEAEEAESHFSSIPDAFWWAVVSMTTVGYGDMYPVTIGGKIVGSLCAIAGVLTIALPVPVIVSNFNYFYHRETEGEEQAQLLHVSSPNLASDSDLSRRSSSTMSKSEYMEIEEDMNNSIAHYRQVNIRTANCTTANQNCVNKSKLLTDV
human Kv1.3 voltage-gated potassium channel (human), sequence (P22001 whole entry): as the sequence (P22001 whole entry) above

20k PEG-ShK (peptide)
WB/IFNg (IC50, nM) [1]: 0.065 nM | WB/IL-2 (IC50, nM) [1]: 0.046 nM

E. coli-derived Fc-L-OSK1 (Fc fusion)
Kv1.3 IC50 by WCVC [2]: 3.2 nM

E. coli-derived Fc-L-ShK[1-35] (Fc fusion)
Kv1.3 IC50 by WCVC [2]: 1.4 nM

E. coli-derived Fc-L-ShK[2-35] (Fc fusion)
Kv1.3 IC50 by IWQ [2]: 2.8 nM | Kv1.3 IC50 by WCVC [2]: 1.3 nM

E. coli-derived ShK[2-35]-L-Fc (Fc fusion)
Kv1.3 IC50 by IWQ [2]: 4.9 nM

E. coli-derived Shk[1-35]-L-Fc (Fc fusion)
Kv1.3 IC50 by IWQ [2]: 2.4 nM

Fc-L10-OSK1 (Fc fusion)
fold loss of potency in Kv1.3 current block against synthetic OSK1 [2]: 5 fold

Fc-L25-ShK[2-35] (Fc fusion)
IC50, whole cell patch clamp electrophysiology on HEK293/Kv1.3 cells [2]: 150 pM

GGGGS-Osk1 (peptide)
WB/IFNg IC50 [2]: 2.2 nM | WB/IL-2 IC50 [2]: 1.36 nM

OSK1 (wild-type) (peptide)
Kv1.1 IC50, whole cell patch clamp [3]: 202 pM | Kv1.3 IC50, whole cell patch clamp [2]: 39 pM | Kv1.3 Selectivity (= Kv1.1/Kv.3 IC50) [2]: 5 fold

PEG-OSK1 (peptide)
peak IC50, whole cell patch clamp on HEK293 cells stably expressing human Kv1.3 [2]: 1.28 nM

Synthetic OSK1 (peptide)
hKv1.1: IC50 [pM] [3]: 160 pM | hKv1.1/hKv1.3 (selectivity ratio of the IC50s) [2]: 4 fold | hKv1.3: IC50 [pM] [2]: 39 pM

B1: 20K PEG-ShK[1-35] (peptide)
peptide: RSCIDTIPKSRCTAFQCKHSMKYRLSFCRKTCGTC
modifications: not fully specified; ends and bridges not checked
peak IC50, whole cell patch clamp on HEK293 cells stably expressing human Kv1.3 [4]: 0.169 nM
